Laboratory results as given in the supplement of paper PMC9112550, “Optimization of the antimicrobial peptide Bac7 by deep mutational scanning” (BMC Biology, 2022).

These sequences were tested on Escherichia coli TOP10 (assay: shrunken log2 fold change of peptide-encoding DNA abundance (4.5 h post-induction vs induction); higher = less antimicrobial activity (less host growth inhibition)). Conditions: time post-induction: 4.5 h; library: site-saturation at positions 5, 18, 19, 20.
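Note: peptides expressed intracellularly from a pBAD plasmid library in pooled LB shake-flask culture, induced with 0.3% L-arabinose, DNA abundance read by NGS, three biological replicates, DESeq2 with apeglm shrinkage.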

Row | Sequence | shrunken log2 fold change
1 | RRIRCRPPRLPRPRPRPKEYPRP | -0.207
2 | RRIRFRPPRLPRPRPRPLTCPRP | -0.182
3 | RRIRRRPPRLPRPRPRPIYHPRP | -0.258
4 | RRIRMRPPRLPRPRPRPKNRPRP | 0.375
5 | RRIRNRPPRLPRPRPRPFVYPRP | -0.0264
6 | RRIRIRPPRLPRPRPRPHHPPRP | -0.629
7 | RRIRGRPPRLPRPRPRPGSIPRP | 0.185
8 | RRIRMRPPRLPRPRPRPKPFPRP | 0.236
9 | RRIRPRPPRLPRPRPRPLSPPRP | -0.113
10 | RRIRMRPPRLPRPRPRPFKWPRP | -0.0704
11 | RRIRQRPPRLPRPRPRPQDHPRP | -0.408
12 | RRIRFRPPRLPRPRPRPCEFPRP | 0.0635
13 | RRIRKRPPRLPRPRPRPQVHPRP | -0.161
14 | RRIRTRPPRLPRPRPRPSWTPRP | -0.468
15 | RRIRGRPPRLPRPRPRPCENPRP | 0.136
16 | RRIRMRPPRLPRPRPRPACTPRP | 0.623
17 | RRIRMRPPRLPRPRPRPITPPRP | 0.0378
18 | RRIRGRPPRLPRPRPRPHIFPRP | 0.224
19 | RRIRRRPPRLPRPRPRPVTAPRP | 0.452
20 | RRIRCRPPRLPRPRPRPVVDPRP | -0.15
21 | RRIRRRPPRLPRPRPRPCNEPRP | -0.0323
22 | RRIRYRPPRLPRPRPRPWANPRP | -0.176
23 | RRIRYRPPRLPRPRPRPFFDPRP | 1.09
24 | RRIRKRPPRLPRPRPRPYIPPRP | -0.651
25 | RRIRYRPPRLPRPRPRPLIHPRP | -1.38

Row | Sequence | shrunken log2 fold change
26 | RRIRCRPPRLPRPRPRPWWWPRP | -0.1
27 | RRIRYRPPRLPRPRPRPIGEPRP | -0.135
28 | RRIRNRPPRLPRPRPRPHSFPRP | -0.258
29 | RRIRARPPRLPRPRPRPHDEPRP | -0.00385
30 | RRIRERPPRLPRPRPRPCTCPRP | -0.00884
31 | RRIRMRPPRLPRPRPRPHDIPRP | -0.104
32 | RRIRCRPPRLPRPRPRPDHIPRP | -0.489
33 | RRIRKRPPRLPRPRPRPNVRPRP | -0.0184
34 | RRIRDRPPRLPRPRPRPNCTPRP | 0.476
35 | RRIRNRPPRLPRPRPRPKATPRP | -0.0881
36 | RRIRGRPPRLPRPRPRPELPPRP | 1.33
37 | RRIRNRPPRLPRPRPRPACSPRP | 0.0895
38 | RRIRCRPPRLPRPRPRPNGPPRP | -0.00954
39 | RRIRVRPPRLPRPRPRPASSPRP | -0.122
40 | RRIRVRPPRLPRPRPRPEPSPRP | 0.0778
41 | RRIRCRPPRLPRPRPRPVHFPRP | 0.128
42 | RRIRHRPPRLPRPRPRPCMFPRP | -0.995
43 | RRIRLRPPRLPRPRPRPIGSPRP | -0.0107
44 | RRIRKRPPRLPRPRPRPMQIPRP | -0.0337
45 | RRIRTRPPRLPRPRPRPYSDPRP | -0.148
46 | RRIRTRPPRLPRPRPRPENCPRP | 0.072
47 | RRIRMRPPRLPRPRPRPFGKPRP | 0.129
48 | RRIRDRPPRLPRPRPRPMSRPRP | -0.107
49 | RRIRKRPPRLPRPRPRPKANPRP | 0.768
50 | RRIRCRPPRLPRPRPRPWRVPRP | 0.149

Row | Sequence | shrunken log2 fold change
51 | RRIRVRPPRLPRPRPRPESHPRP | -0.138
52 | RRIRRRPPRLPRPRPRPRPEPRP | 0.343
53 | RRIRLRPPRLPRPRPRPDKCPRP | -0.0114
54 | RRIRCRPPRLPRPRPRPFDLPRP | -0.0696
55 | RRIRGRPPRLPRPRPRPQSYPRP | 0.113
56 | RRIRPRPPRLPRPRPRPDLVPRP | -0.0293
57 | RRIRNRPPRLPRPRPRPAPWPRP | 0.266
58 | RRIRYRPPRLPRPRPRPHTGPRP | -1.06
59 | RRIRGRPPRLPRPRPRPKMYPRP | 0.107
60 | RRIRRRPPRLPRPRPRPSHQPRP | 0.0351
61 | RRIRHRPPRLPRPRPRPRNNPRP | -0.493
62 | RRIRRRPPRLPRPRPRPTWVPRP | 0.275
63 | RRIRCRPPRLPRPRPRPPMYPRP | -0.156
64 | RRIRARPPRLPRPRPRPRILPRP | 0.323
65 | RRIRKRPPRLPRPRPRPQPYPRP | -0.157
66 | RRIRWRPPRLPRPRPRPWRGPRP | 0.389
67 | RRIRVRPPRLPRPRPRPEFSPRP | -0.0024
68 | RRIRSRPPRLPRPRPRPCCHPRP | -0.0953
69 | RRIRLRPPRLPRPRPRPIDEPRP | -0.178
70 | RRIRSRPPRLPRPRPRPEPKPRP | 0.954
71 | RRIRPRPPRLPRPRPRPVWDPRP | 0.212
72 | RRIRLRPPRLPRPRPRPLSMPRP | -0.163
73 | RRIRDRPPRLPRPRPRPCYTPRP | -0.295
74 | RRIRMRPPRLPRPRPRPQIIPRP | 0.022
75 | RRIRKRPPRLPRPRPRPSFVPRP | -0.174

Row | Sequence | shrunken log2 fold change
76 | RRIRQRPPRLPRPRPRPIYQPRP | -0.647
77 | RRIRQRPPRLPRPRPRPLSDPRP | -0.0651
78 | RRIRDRPPRLPRPRPRPETQPRP | 0.476
79 | RRIRHRPPRLPRPRPRPMGCPRP | -0.000946
80 | RRIRYRPPRLPRPRPRPMFWPRP | -0.0534
81 | RRIRRRPPRLPRPRPRPKIVPRP | 0.0944
82 | RRIRDRPPRLPRPRPRPMPEPRP | 0.0845
83 | RRIRTRPPRLPRPRPRPWHNPRP | -0.0242
84 | RRIRRRPPRLPRPRPRPDWHPRP | -0.0494
85 | RRIRCRPPRLPRPRPRPPMCPRP | -0.23
86 | RRIRFRPPRLPRPRPRPTFSPRP | -0.0425
87 | RRIRVRPPRLPRPRPRPYCWPRP | -0.0314
88 | RRIRQRPPRLPRPRPRPSQHPRP | -0.356
89 | RRIRPRPPRLPRPRPRPIDPPRP | -0.172
90 | RRIRVRPPRLPRPRPRPTVQPRP | -0.0375
91 | RRIRPRPPRLPRPRPRPSVSPRP | -0.504
92 | RRIRNRPPRLPRPRPRPYKLPRP | -0.66
93 | RRIRGRPPRLPRPRPRPINWPRP | 0.193
94 | RRIRPRPPRLPRPRPRPAPKPRP | 0.702
95 | RRIRRRPPRLPRPRPRPSFFPRP | 0.0112
96 | RRIRFRPPRLPRPRPRPNPYPRP | -0.238
97 | RRIRLRPPRLPRPRPRPHGGPRP | -0.234
98 | RRIRFRPPRLPRPRPRPKDVPRP | -0.00433
99 | RRIRNRPPRLPRPRPRPIPEPRP | -0.147
100 | RRIRRRPPRLPRPRPRPPYHPRP | 0.124

Row | Sequence | shrunken log2 fold change
101 | RRIRERPPRLPRPRPRPFIKPRP | -0.16
102 | RRIRPRPPRLPRPRPRPILYPRP | -0.299
103 | RRIRERPPRLPRPRPRPFDQPRP | -0.0377
104 | RRIRFRPPRLPRPRPRPLQGPRP | 0.0475
105 | RRIRARPPRLPRPRPRPNERPRP | 0.531
106 | RRIRGRPPRLPRPRPRPSMLPRP | 0.58
107 | RRIRERPPRLPRPRPRPHMRPRP | 0.0528
108 | RRIRKRPPRLPRPRPRPEPVPRP | 0.0885
109 | RRIRQRPPRLPRPRPRPNVIPRP | -0.0189
110 | RRIRIRPPRLPRPRPRPKNRPRP | -0.26
111 | RRIRGRPPRLPRPRPRPNKGPRP | -0.0466
112 | RRIRARPPRLPRPRPRPSCPPRP | 0.131
113 | RRIRTRPPRLPRPRPRPGWPPRP | 0.576
114 | RRIRTRPPRLPRPRPRPGAMPRP | 0.144
115 | RRIRWRPPRLPRPRPRPVKCPRP | -0.015
116 | RRIRCRPPRLPRPRPRPKWYPRP | -0.239
117 | RRIRVRPPRLPRPRPRPPWAPRP | 0.537
118 | RRIRRRPPRLPRPRPRPPYNPRP | -0.019
119 | RRIRFRPPRLPRPRPRPLPPPRP | 0.828
120 | RRIRFRPPRLPRPRPRPKDAPRP | 0.141
121 | RRIRRRPPRLPRPRPRPQILPRP | 0.0332
122 | RRIRFRPPRLPRPRPRPTCAPRP | 0.564
123 | RRIRIRPPRLPRPRPRPVANPRP | -0.109
124 | RRIRHRPPRLPRPRPRPRYTPRP | -0.123
125 | RRIRTRPPRLPRPRPRPKKIPRP | -0.437

Row | Sequence | shrunken log2 fold change
126 | RRIRARPPRLPRPRPRPTCHPRP | 0.427
127 | RRIRQRPPRLPRPRPRPTVGPRP | -0.161
128 | RRIRIRPPRLPRPRPRPMNQPRP | -0.169
129 | RRIRMRPPRLPRPRPRPCKVPRP | -0.0465
130 | RRIRTRPPRLPRPRPRPAIYPRP | -0.372
131 | RRIRPRPPRLPRPRPRPVDGPRP | 0.0909
132 | RRIRYRPPRLPRPRPRPAGVPRP | 0.0619
133 | RRIRRRPPRLPRPRPRPPVRPRP | 0.437
134 | RRIRWRPPRLPRPRPRPHPSPRP | 0.452
135 | RRIRERPPRLPRPRPRPRCDPRP | -0.044
136 | RRIRCRPPRLPRPRPRPMALPRP | -0.0797
137 | RRIRDRPPRLPRPRPRPICCPRP | 0.037
138 | RRIRERPPRLPRPRPRPTLTPRP | -0.0194
139 | RRIRMRPPRLPRPRPRPKVNPRP | 0.31
140 | RRIRPRPPRLPRPRPRPKCHPRP | 0.0622
141 | RRIRKRPPRLPRPRPRPKSKPRP | 0.45
142 | RRIRVRPPRLPRPRPRPYVNPRP | 0.0651
143 | RRIRHRPPRLPRPRPRPPLDPRP | 0.372
144 | RRIRMRPPRLPRPRPRPFYGPRP | 0.0715
145 | RRIRGRPPRLPRPRPRPRVEPRP | 0.432
146 | RRIRCRPPRLPRPRPRPGQEPRP | 0.094
147 | RRIRDRPPRLPRPRPRPTEHPRP | -0.109
148 | RRIRSRPPRLPRPRPRPWKNPRP | -0.0508
149 | RRIRVRPPRLPRPRPRPKLTPRP | -0.0989
150 | RRIRIRPPRLPRPRPRPGYPPRP | -0.173
